Reference: PMC7611026 (Journal of molecular biology, 2008)
Each block holds one binder with its values, some of them ahead of it.

Columns and labels:
[1] = biological target: T1, RhlB, individually prepared recombinant (E. coli, UniProt P0A8J8 1-421); assay: cross-linking
T1 sequence: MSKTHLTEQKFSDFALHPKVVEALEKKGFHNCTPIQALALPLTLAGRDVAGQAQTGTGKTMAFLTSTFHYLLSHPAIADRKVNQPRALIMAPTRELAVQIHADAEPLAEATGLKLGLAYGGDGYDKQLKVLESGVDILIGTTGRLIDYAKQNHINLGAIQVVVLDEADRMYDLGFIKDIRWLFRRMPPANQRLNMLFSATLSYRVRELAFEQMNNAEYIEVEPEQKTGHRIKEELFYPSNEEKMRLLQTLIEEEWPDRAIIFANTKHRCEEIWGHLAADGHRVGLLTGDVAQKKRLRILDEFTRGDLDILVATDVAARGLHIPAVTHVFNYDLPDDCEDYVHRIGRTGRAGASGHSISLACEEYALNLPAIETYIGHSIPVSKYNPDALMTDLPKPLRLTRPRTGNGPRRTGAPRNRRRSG

[2] = biological target: RNase E(1–762), hexahistidine-tagged, coexpressed with RhlB (E. coli) (UniProt P21513); assay: pull-down + SEC
[3] = biological target: RNase E, genomically encoded, C-terminally FLAG-tagged (rne-FLAG, strain TM522) (E. coli K12, UniProt P21513 1-1061); assay: co-IP
Chain of RNase E, genomically encoded, C-terminally FLAG-tagged (rne-FLAG, strain TM522) (P21513 whole entry): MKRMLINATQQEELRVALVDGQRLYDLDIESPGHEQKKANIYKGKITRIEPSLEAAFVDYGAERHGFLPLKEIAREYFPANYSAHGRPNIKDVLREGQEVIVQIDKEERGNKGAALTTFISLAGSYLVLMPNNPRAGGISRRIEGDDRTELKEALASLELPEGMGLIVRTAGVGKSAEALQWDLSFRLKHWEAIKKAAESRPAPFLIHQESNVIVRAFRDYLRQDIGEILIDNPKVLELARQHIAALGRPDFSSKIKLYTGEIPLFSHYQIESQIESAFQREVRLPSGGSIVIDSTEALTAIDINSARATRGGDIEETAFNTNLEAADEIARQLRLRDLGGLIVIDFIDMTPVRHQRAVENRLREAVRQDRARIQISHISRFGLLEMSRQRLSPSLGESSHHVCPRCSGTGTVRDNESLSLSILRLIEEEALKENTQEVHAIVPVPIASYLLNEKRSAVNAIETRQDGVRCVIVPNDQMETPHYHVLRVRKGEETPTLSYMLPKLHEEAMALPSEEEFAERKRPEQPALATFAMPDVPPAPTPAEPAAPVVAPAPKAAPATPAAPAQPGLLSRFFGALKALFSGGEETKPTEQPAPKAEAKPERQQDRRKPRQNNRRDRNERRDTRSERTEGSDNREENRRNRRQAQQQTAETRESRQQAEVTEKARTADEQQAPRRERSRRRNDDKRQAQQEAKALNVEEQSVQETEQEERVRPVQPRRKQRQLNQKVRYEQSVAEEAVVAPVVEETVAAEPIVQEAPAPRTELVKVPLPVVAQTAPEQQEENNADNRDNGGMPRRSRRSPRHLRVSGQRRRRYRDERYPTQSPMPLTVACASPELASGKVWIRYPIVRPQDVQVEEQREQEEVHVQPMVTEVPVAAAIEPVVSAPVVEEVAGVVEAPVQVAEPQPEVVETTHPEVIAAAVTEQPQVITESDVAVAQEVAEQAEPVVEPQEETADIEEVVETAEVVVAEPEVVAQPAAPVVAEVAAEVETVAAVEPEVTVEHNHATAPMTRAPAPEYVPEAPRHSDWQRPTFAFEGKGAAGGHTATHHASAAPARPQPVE

Chain of RNase E(1–762), hexahistidine-tagged, coexpressed with RhlB (E. coli) (P21513 1-762): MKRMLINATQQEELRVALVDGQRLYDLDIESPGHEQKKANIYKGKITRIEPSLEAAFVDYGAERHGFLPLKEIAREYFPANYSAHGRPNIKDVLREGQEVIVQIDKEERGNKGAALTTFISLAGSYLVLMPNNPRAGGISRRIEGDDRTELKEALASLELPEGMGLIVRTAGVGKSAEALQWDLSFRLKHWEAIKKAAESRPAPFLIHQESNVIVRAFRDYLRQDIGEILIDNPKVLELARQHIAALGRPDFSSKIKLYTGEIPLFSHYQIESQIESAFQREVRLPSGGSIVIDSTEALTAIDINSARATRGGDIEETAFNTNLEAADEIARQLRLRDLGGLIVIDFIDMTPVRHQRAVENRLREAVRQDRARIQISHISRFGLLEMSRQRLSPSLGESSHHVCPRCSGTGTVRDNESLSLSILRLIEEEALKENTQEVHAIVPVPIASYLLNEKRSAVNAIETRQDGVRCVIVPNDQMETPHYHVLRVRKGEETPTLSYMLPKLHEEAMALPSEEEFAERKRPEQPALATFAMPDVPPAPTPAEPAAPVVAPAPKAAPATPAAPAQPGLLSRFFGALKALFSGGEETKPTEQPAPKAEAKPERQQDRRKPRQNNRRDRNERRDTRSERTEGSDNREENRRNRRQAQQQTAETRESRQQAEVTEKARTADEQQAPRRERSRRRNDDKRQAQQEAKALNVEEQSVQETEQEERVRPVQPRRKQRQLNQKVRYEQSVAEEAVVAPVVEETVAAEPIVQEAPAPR

- binding result [1]: binds
B1: RNase E(628–843) (domain or fragment)
chain: ERTEGSDNREENRRNRRQAQQQTAETRESRQQAEVTEKARTADEQQAPRRERSRRRNDDKRQAQQEAKALNVEEQSVQETEQEERVRPVQPRRKQRQLNQKVRYEQSVAEEAVVAPVVEETVAAEPIVQEAPAPRTELVKVPLPVVAQTAPEQQEENNADNRDNGGMPRRSRRSPRHLRVSGQRRRRYRDERYPTQSPMPLTVACASPELASGKVW

- stoichiometry N (RhlB protomer per RNase E protomer) [2]: 1
B2: RNA helicase B (RhlB), recombinant, coexpressed with RNase E from pRSF_rnerhlB (enzyme)
chain: MSKTHLTEQKFSDFALHPKVVEALEKKGFHNCTPIQALALPLTLAGRDVAGQAQTGTGKTMAFLTSTFHYLLSHPAIADRKVNQPRALIMAPTRELAVQIHADAEPLAEATGLKLGLAYGGDGYDKQLKVLESGVDILIGTTGRLIDYAKQNHINLGAIQVVVLDEADRMYDLGFIKDIRWLFRRMPPANQRLNMLFSATLSYRVRELAFEQMNNAEYIEVEPEQKTGHRIKEELFYPSNEEKMRLLQTLIEEEWPDRAIIFANTKHRCEEIWGHLAADGHRVGLLTGDVAQKKRLRILDEFTRGDLDILVATDVAARGLHIPAVTHVFNYDLPDDCEDYVHRIGRTGRAGASGHSISLACEEYALNLPAIETYIGHSIPVSKYNPDALMTDLPKPLRLTRPRTGNGPRRTGAPRNRRRSG

- PNPase component in aceE/aceF-null cells relative to wild-type control cells [3]: ~3 fold
- stoichiometry N [3]: ~2 PNPase monomers per RNase E monomer
B3: PNPase, endogenous, in the cell-extracted FLAG-tagged degradosome (enzyme)
chain: MLNPIVRKFQYGQHTVTLETGMMARQATAAVMVSMDDTAVFVTVVGQKKAKPGQDFFPLTVNYQERTYAAGRIPGSFFRREGRPSEGETLIARLIDRPIRPLFPEGFVNEVQVIATVVSVNPQVNPDIVAMIGASAALSLSGIPFNGPIGAARVGYINDQYVLNPTQDELKESKLDLVVAGTEAAVLMVESEAQLLSEDQMLGAVVFGHEQQQVVIQNINELVKEAGKPRWDWQPEPVNEALNARVAALAEARLSDAYRITDKQERYAQVDVIKSETIATLLAEDETLDENELGEILHAIEKNVVRSRVLAGEPRIDGREKDMIRGLDVRTGVLPRTHGSALFTRGETQALVTATLGTARDAQVLDELMGERTDTFLFHYNFPPYSVGETGMVGSPKRREIGHGRLAKRGVLAVMPDMDKFPYTVRVVSEITESNGSSSMASVCGASLALMDAGVPIKAAVAGIAMGLVKEGDNYVVLSDILGDEDHLGDMDFKVAGSRDGISALQMDIKIEGITKEIMQVALNQAKGARLHILGVMEQAINAPRGDISEFAPRIHTIKINPDKIKDVIGKGGSVIRALTEETGTTIEIEDDGTVKIAATDGEKAKHAIRRIEEITAEIEVGRVYTGKVTRIVDFGAFVAIGGGKEGLVHISQIADKRVEKVTDYLQMGQEVPVKVLEVDRQGRIRLSIKEATEQSQPAAAPEAPAAEQGE
